IntAct's records for PubMed 33053321

B1: Signal recognition particle subunit SRP54 (Homo sapiens), P61011 (parent)
chain: MVLADLGRKITSALRSLSNATIINEEVLNAMLKEVCTALLEADVNIKLVKQLRENVKSAIDLEEMASGLNKRKMIQHAVFKELVKLVDPGVKAWTPTKGKQNVIMFVGLQGSGKTTTCSKLAYYYQRKGWKTCLICADTFRAGAFDQLKQNATKARIPFYGSYTEMDPVIIASEGVEKFKNENFEIIIVDTSGRHKQEDSLFEEMLQVANAIQPDNIVYVMDASIGQACEAQAKAFKDKVDVASVIVTKLDGHAKGGGALSAVAATKSPIIFIGTGEHIDDFEPFKTQPFISKLLGMGDIEGLIDKVNELKLDDNEALIEKLKHGQFTLRDMYEQFQNIMKMGPFSQILGMIPGFGTDFMSKGNEQESMARLKKLMTIMDSMNDQELDSTDGAKVFSKQPGRIQRVARGSGVSTRDVQELLTQYTKFAQMVKKMGGIKGLFKGGDMSKNVSQSQMAKLNQQMAKMMDPRVLHHMGGMAGLQSMMRQFQQGAAGNMKGMMGFNNM
partner: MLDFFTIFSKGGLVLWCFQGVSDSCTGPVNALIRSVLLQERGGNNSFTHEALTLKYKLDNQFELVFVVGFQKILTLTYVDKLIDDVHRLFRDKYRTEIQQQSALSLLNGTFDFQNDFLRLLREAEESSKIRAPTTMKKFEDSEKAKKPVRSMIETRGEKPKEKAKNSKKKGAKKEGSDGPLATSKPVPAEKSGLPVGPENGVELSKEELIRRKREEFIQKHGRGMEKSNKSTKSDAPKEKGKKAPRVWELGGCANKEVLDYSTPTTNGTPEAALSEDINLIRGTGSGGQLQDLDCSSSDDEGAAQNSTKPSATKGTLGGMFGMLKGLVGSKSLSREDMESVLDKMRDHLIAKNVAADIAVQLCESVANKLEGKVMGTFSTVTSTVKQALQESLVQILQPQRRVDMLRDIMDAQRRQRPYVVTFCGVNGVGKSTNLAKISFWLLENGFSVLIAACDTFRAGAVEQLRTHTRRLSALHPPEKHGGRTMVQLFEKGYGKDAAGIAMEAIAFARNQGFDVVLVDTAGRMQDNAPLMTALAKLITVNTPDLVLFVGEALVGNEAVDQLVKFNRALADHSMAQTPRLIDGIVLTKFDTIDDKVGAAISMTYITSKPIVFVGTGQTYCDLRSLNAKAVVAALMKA
B2: Signal recognition particle subunit SRP54 (Saccharomyces cerevisiae), P20424 (parent)
chain: MVLADLGKRINSAVNNAISNTQDDFTTSVDVMLKGIVTALLESDVNIALVSKLRNNIRSQLLSENRSEKSTTNAQTKKLIQKTVFDELCKLVTCEGSEEKAFVPKKRKTNIIMFVGLQGSGKTTSCTKLAVYYSKRGFKVGLVCADTFRAGAFDQLKQNAIRARIPFYGSYTETDPAKVAEEGINKFKKEKFDIIIVDTSGRHHQEEELFQEMIEISNVIKPNQTIMVLDASIGQAAEQQSKAFKESSDFGAIILTKMDGHARGGGAISAVAATNTPIIFIGTGEHIHDLEKFSPKSFISKLLGIGDIESLFEQLQTVSNKEDAKATMENIQKGKFTLLDFKKQMQTIMKMGPLSNIAQMIPGMSNMMNQVGEEETSQKMKKMVYVLDSMTKEELESDGRMFIEEPTRMVRVAKGSGTSVFEVEMILMQQQMMARMAQTATQQQPGAPGANARMPGMPNMPGMPNMPGMPNMPGMPKVTPQMMQQAQQKLKQNPGLMQNMMNMFGGGMGGGMGGGMPDMNEMMKMMQDPQMQQMAKQFGMG
partner: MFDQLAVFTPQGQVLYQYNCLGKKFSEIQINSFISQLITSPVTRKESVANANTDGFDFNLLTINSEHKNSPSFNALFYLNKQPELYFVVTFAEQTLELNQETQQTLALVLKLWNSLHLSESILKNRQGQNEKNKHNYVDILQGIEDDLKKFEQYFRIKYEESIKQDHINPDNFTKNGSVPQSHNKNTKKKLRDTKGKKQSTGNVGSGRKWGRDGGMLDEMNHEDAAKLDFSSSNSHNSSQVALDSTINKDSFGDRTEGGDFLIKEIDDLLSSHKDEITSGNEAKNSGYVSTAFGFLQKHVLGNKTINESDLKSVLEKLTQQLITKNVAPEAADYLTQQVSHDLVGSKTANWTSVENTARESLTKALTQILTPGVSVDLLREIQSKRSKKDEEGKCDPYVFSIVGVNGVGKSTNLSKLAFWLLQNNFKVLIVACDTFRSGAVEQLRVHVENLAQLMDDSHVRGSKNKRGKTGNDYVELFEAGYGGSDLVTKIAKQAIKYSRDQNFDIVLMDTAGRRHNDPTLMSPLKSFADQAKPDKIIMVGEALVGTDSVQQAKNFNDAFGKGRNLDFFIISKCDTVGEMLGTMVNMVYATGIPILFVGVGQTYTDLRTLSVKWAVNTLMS

Variants of: B1
Conditions: with srpra_human SRPRA

Variant | effect of a mutation on the interaction
G226E | disrupting interaction strength
T115A | decreasing interaction strength

Variants of: B2
Conditions: with srpr_yeast SRP101, P32916

Variant | effect of a mutation on the interaction
MVLADLGKRINSAVNNAISNTQDDFTTSVDVMLKGIVTALLESDVNIALVSKLRNNIRSQLLSENRSEKSTTNAQTKKLIQKTVFDELCKLVTCEGSEEKAFVPKKRKTNIIMFVGLQGSGKTTSCTKLAVYYSKRGFKVGLVCADTFRAGAFDQLKQNAIRARIPFYGSYTETDPAKVAEEGINKFKKEKFDIIIVDTSGRHHQEEELFQEMIEISNVIKPNQTIMVLDASIEQAAEQQSKAFKESSDFGAIILTKMDGHARGGGAISAVAATNTPIIFIGTGEHIHDLEKFSPKSFISKLLGIGDIESLFEQLQTVSNKEDAKATMENIQKGKFTLLDFKKQMQTIMKMGPLSNIAQMIPGMSNMMNQVGEEETSQKMKKMVYVLDSMTKEELESDGRMFIEEPTRMVRVAKGSGTSVFEVEMILMQQQMMARMAQTATQQQPGAPGANARMPGMPNMPGMPNMPGMPNMPGMPKVTPQMMQQAQQKLKQNPGLMQNMMNMFGGGMGGGMGGGMPDMNEMMKMMQDPQMQQMAKQFGMG [G234E] | disrupting interaction strength
